Measurements: PMC9923923 (2023)

B1: eCIRP (protein)
chain: MASDEGKLFVGGLSFDTNEQALEQVFSKYGQISEVVVVKDRETQRSRGFGFVTFENIDDAKDAMMAMNGKSVDGRQIRVDQAGKSSDNRSRGYRGGSAGGRGFFRGGRSRGRGFSRGGGDRGYGGGRFESRSGGYGGSRDYYASRSQGGSYGYRSSGGSYRDSYDSYATHNE
modifications: 5 nM PS-OMe miR130 (value in text)
B2: eCIRP (protein)
chain: B1 chain
B3: eCIRP (protein)
chain: B1 chain
modifications: 5 nM PS-OMe miR130
B4: eCIRP (protein)
chain: B1 chain
modifications: 5 nM PS-OMe miR130 (value in legend)

Experiments:
TLR4 = TLR4 (Homo sapiens, UniProt O00206); assay: SPR
TLR4/MD2 complex = TLR4/MD2 complex (Homo sapiens, UniProt O00206); assay: SPR
TLR4/MD2 complex, sequence (O00206 24-839, chain 1 of 2): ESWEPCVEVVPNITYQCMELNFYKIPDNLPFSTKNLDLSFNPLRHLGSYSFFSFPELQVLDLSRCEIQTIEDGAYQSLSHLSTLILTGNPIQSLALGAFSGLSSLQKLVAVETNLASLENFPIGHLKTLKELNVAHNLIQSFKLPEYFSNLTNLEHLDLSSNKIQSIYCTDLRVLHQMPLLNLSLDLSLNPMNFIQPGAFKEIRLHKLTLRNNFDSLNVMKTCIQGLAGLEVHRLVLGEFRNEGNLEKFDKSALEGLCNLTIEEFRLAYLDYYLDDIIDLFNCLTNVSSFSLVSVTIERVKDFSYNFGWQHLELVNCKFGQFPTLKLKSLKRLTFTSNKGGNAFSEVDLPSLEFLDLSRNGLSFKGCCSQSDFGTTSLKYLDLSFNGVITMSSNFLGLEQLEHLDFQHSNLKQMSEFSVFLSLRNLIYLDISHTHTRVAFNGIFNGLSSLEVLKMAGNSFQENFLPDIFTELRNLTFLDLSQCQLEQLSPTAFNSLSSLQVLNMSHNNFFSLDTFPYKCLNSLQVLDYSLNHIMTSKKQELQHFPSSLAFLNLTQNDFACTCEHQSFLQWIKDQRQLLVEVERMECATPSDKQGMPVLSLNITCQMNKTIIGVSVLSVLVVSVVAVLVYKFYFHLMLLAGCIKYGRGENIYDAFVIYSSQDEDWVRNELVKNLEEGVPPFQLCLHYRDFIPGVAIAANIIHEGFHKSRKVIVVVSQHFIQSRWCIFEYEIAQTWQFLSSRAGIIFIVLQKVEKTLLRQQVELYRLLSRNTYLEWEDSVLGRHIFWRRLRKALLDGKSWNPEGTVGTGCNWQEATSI
TLR4/MD2 complex, sequence (chain, as listed by the source, chain 2 of 2): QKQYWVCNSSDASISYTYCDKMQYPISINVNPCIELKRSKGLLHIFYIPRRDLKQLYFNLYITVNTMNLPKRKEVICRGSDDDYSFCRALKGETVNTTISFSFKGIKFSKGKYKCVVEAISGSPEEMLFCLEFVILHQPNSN

TLR4, sequence (O00206 24-839): as the sequence (O00206 24-839, chain 1 of 2) above

Row | Binder | Kd (TLR4) [nM] | Kd (TLR4/MD2 complex) [nM]
1 | B1 | 612 | –
2 | B2 | 69.7 | 20
3 | B3 | – | 113
4 | B4 | 139 | –
